Patent publication US20120058100A1, “MODULATION OF DRUG RELEASE RATE FROM ELECTROSPUN FIBERS” (priority 2006, published 2012)

Experiment: Release of FITC-BSA from emulsion-electrospun PU, PLA and co-spun fibers in PBS
Type: physicochemical
Description: Polymers were dissolved in organic solvent and emulsified with a H2O/Poly(vinyl alcohol) mixture with the molecule to be released dispersed in the aqueous phase. Polyurethane (PU) was dissolved at 6 wt % in a mixture of chloroform and tetrahydrofuran. PLA was dissolved at 2 wt % in chloroform. Drugs were loaded into the PVA/Water mixture with aqueous volume fractions ranging from 10-20 vol %. Emulsions were loaded into plastic syringe fitted with a blunt tip 18-gauge needle and placed into a syringe pump.
Circular discs were punched out from the aluminum foil and polymer fibers removed from Al-backing. Samples placed in centrifuge tubes individual glass vials with PBS. Samples degraded in at room temperature (20° C.) on a rotisserie. The buffer was sampled at given intervals. Depending on release molecule, different spectrophotometric techniques were used to measure release profiles.
The concentration was determined fluorometrically by measuring […] at λ=495 nm. Samples were placed in 10 ml of PBS and 200 μl of buffer was used to run the assay and not replaced (total amount withdrawn from tube was less than 40% of total volume). Average concentration plotted over 360 hour time course (n=3).

Substance: FITC-BSA: fluorescein isothiocyanate conjugated albumin, a model protein
- duration over which release can be achieved (PU and PLA fibers): ≥ 15 days
- release from meshes of co-spun PLA and PU fibers relative to pure PLA or PU meshes (co-spun PLA and PU fibers): intermediate manner
- release rate relative to doxycycline (electrospun fibers): much slower release rates
